Experimental data as given in patent publication US20060153883A1 (Chugai, published 2006).

Target: T1, HA tag-carrying soluble HM1.24 antigen sHM164 (HM1.24 antigen extracellular region in which the C terminal … (human, UniProt Q10589 49-163, limits assumed))
T1 construct: also called HA-sHM164
T1 sequence: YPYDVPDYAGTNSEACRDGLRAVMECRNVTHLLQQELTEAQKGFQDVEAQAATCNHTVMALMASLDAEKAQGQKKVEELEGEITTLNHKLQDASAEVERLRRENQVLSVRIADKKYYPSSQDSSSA
Assay: sandwich ELISA: anti-HA antibody coated, CHO culture supernatant, humanized anti-HM1.24 antibody as detector, AP-labeled anti-human IgG
Procedure: The soluble human HM1.24 ELISA described below was conducted as follows. In order to select a highly productive strain, the amount of the soluble protein produced was compared by a sandwich ELISA using anti-HA antibody (Boehringer Mannheim) and a humanized anti-HM1.24 antibody (K. Ono et al., The 20th Japan Molecular Biology Annual Meeting, General Lecture 3-501-P-478), whereby selecting the strain. Since the antigen concentration was not known because a purified antigen was not obtained, the number of the cells upon the ELISA was taken into account when comparing the concentration.
An anti-HA antibody (Boehringer Mannheim) was adjusted at 1 μg/ml in a Coating Buffer (C.B.: 0.1 mol/L sodium bicarbonate buffer, pH 9.6, 0.2% sodium azide) was added to a plane bottom 96-well plate (Nunc) in the volume of 100 μl/well, and coated overnight at 4° C.

B1: reconstructed human anti-HM1.24 antibody (humanized anti-HM1.24 antibody), light chain version a and heavy chain version s described in WO98/14580 (antibody, V domains shown)
VH: QVQLVQSGAEVKKPGASVKVSCKASGYTFTPYWMQWVRQAPGQGLEWMGSIFPGDGDTRYSQKFKGRVTITADKSTSTAYMELSSLRSEDTAVYYCARGLRRGGYYFDYWGQGTTVTVSS
VL: DIQMTQSPSSLSASVGDRVTITCKASQDVNTAVAWYQQKPGKAPKLLIYSASNRYTGVPSRFSGSGSGTDFTFTISSLQPEDIATYYCQQHYSTPFTFGQGTKVEIK
notes: Plasmid names point to a human gamma 1 heavy and a kappa light constant region; It was detected with an anti-human IgG antibody in the ELISA
B1: binds.
